Tests used:
[1] = biological target: recombinant gB-CMV polyepitope protein (Human cytomegalovirus (AD169)); assay: direct ELISA; plate coated with concentrated recombinant protein diluted 1:50; 2F12 at 1:8000; HRP anti-mouse Ig, TMB
[2] = biological target: recombinant gB-CMV polyepitope protein (Human cytomegalovirus (AD169)); assay: direct ELISA; plate coated with concentrated recombinant protein diluted 1:102400; 2F12 at 1:8000; HRP anti-mouse Ig, TMB
[3] = biological target: recombinant gB-CMV polyepitope protein (Human cytomegalovirus (AD169)); assay: direct ELISA; plate coated with concentrated recombinant protein diluted 1:400; 2F12 at 1:8000; HRP anti-mouse Ig, TMB
[4] = biological target: recombinant gB-CMV polyepitope protein (Human cytomegalovirus (AD169)); assay: direct ELISA; plate coated with concentrated recombinant protein diluted 1:100; 2F12 at 1:8000; HRP anti-mouse Ig, TMB
[5] = biological target: recombinant gB-CMV polyepitope protein (Human cytomegalovirus (AD169)); assay: direct ELISA; plate coated with concentrated recombinant protein diluted 1:200; 2F12 at 1:8000; HRP anti-mouse Ig, TMB
[6] = biological target: recombinant gB-CMV polyepitope protein (Human cytomegalovirus (AD169)); assay: direct ELISA; plate coated with concentrated recombinant protein diluted 1:12800; 2F12 at 1:8000; HRP anti-mouse Ig, TMB
[7] = biological target: recombinant gB-CMV polyepitope protein (Human cytomegalovirus (AD169)); assay: direct ELISA; plate coated with concentrated recombinant protein diluted 1:6400; 2F12 at 1:8000; HRP anti-mouse Ig, TMB
[8] = biological target: recombinant gB-CMV polyepitope protein (Human cytomegalovirus (AD169)); assay: direct ELISA; plate coated with concentrated recombinant protein diluted 1:1600; 2F12 at 1:8000; HRP anti-mouse Ig, TMB
[9] = biological target: recombinant gB-CMV polyepitope protein (Human cytomegalovirus (AD169)); assay: direct ELISA; plate coated with concentrated recombinant protein diluted 1:25600; 2F12 at 1:8000; HRP anti-mouse Ig, TMB
[10] = biological target: recombinant gB-CMV polyepitope protein (Human cytomegalovirus (AD169)); assay: direct ELISA; plate coated with concentrated recombinant protein diluted 1:3200; 2F12 at 1:8000; HRP anti-mouse Ig, TMB
[11] = biological target: recombinant gB-CMV polyepitope protein (Human cytomegalovirus (AD169)); assay: direct ELISA; plate coated with concentrated recombinant protein diluted 1:51200; 2F12 at 1:8000; HRP anti-mouse Ig, TMB
[12] = biological target: recombinant gB-CMV polyepitope protein (Human cytomegalovirus (AD169)); assay: direct ELISA; plate coated with concentrated recombinant protein diluted 1:800; 2F12 at 1:8000; HRP anti-mouse Ig, TMB

With “anti-gB monoclonal antibody 2F12 (Abcam, UK)” the OD [1] was 0.69 OD, the OD [2] was 0.144 OD and the OD [3] was 0.59 OD. It also gave an OD [4] of 0.548 OD, an OD [5] of 0.408 OD and an OD [6] of 0.249 OD. The OD [7] was 0.317 OD, the OD [8] was 0.379 OD and the OD [9] was 0.277 OD. It also gave an OD [10] of 0.4 OD, an OD [11] of 0.19 OD and an OD [12] of 0.486 OD.

From US7976845
